The chains are these.
B1: ZBED2 (parent)
chain: FHLAPARAGHHPNQYATCRLCGRQ
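Also: lentivirally expressed fusions sorted by FACS into six bins by GFP to DsRed ratio, PSI derived from sequencing read proportions per bin multiplied by bin number.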

Variants of B1 are the subject of the series. Put plainly: protein stability index of a GFP-peptide fusion (GPS, HEK-293T) (PSI 1-6); higher = more stable. As to conditions: c terminus: a fixed tail appended.
For the variant FHLAPARAGHHPNQYAKCRLCGRQ [T17K], the protein stability index came out at 1.72.
With FHLAPARAGHHPNQYAECRLCGRQ [T17E], the protein stability index was 1.73.
For FHLAPARAGHHPNQYACCRLCGRQ [T17C] the value was 1.68; for FHLAPARAGHHPNQYALCRLCGRQ [T17L], 1.25.
For the variant FHLAPARAGHHPNQYAMCRLCGRQ [T17M], the protein stability index came out at 2.42.
As for FHLAPARAGHHPNQYAPCRLCGRQ [T17P], the protein stability index was determined as 1.69.
For FHLAPARAGHHPTQYATCRLCGRQ [N13T] the value was 1.52; for FHLAPARAGHHPYQYATCRLCGRQ [N13Y], 1.55; for FHLAPARAGHHPAQYATCRLCGRQ [N13A], 2.34.
Turning to FHLAPARAGHHPCQYATCRLCGRQ [N13C], the protein stability index is 2.97.
For FHLAPARAGHHPKQYATCRLCGRQ [N13K] the value was 1.77; for FHLAPARAGHHPIQYATCRLCGRQ [N13I], 1.42; for FHLAPARAGHHPDQYATCRLCGRQ [N13D], 1.43.
The value for FHLAPARAGHHPEQYATCRLCGRQ [N13E] was 3.21; that for FHLAPARAGHHPMQYATCRLCGRQ [N13M] was 1.52; that for FHLAPARAGHHPQQYATCRLCGRQ [N13Q] was 1.98.
For FHLAPARAGHWPNQYATCRLCGRQ [H11W] the value was 1.04; for FHLAPARAGHTPNQYATCRLCGRQ [H11T], 1.95; for FHLAPARAGHGPNQYATCRLCGRQ [H11G], 2.01.
Take FHLAPARAGHAPNQYATCRLCGRQ [H11A]: the protein stability index was determined as 2.48.
On to FHLAPARAGHPPNQYATCRLCGRQ [H11P], for which the protein stability index amounted to 1.4.
For FHLAPARAGHKPNQYATCRLCGRQ [H11K] the value was 1.58; for FHLAPARAGHEPNQYATCRLCGRQ [H11E], 2.04.
As to FHLAPARAGHNPNQYATCRLCGRQ [H11N], the protein stability index stood at 1.39.
Turning to FHLAPARAGHQPNQYATCRLCGRQ [H11Q], the protein stability index turned out to be 1.29.
The value for FHLAPARAGHFPNQYATCRLCGRQ [H11F] was 1.98; that for FHLAPARAGHIPNQYATCRLCGRQ [H11I] was 1.33.
The value for FHLAPARAGHMPNQYATCRLCGRQ [H11M] was 2.35.
Consider FHLAPARAGHVPNQYATCRLCGRQ [H11V], for which the protein stability index stood at 1.98.
For FHLAPARAGHCPNQYATCRLCGRQ [H11C] the value was 2.12; for FHLAPARAGHDPNQYATCRLCGRQ [H11D], 1.46.
As to FHLAPYRAGHHPNQYATCRLCGRQ [A6Y], the protein stability index came out at 2.19.
In the case of FHLAPARAGHHPNQYATIRLCGRQ [C18I], the protein stability index worked out at 2.17.
FHLAPARAGHHPNQYATTRLCGRQ [C18T]: the protein stability index came out at 2.87.
For FHLAPARAGHHPNQYATVRLCGRQ [C18V] the value was 2.25.
Take FHLAPARAGHHPNQYATNRLCGRQ [C18N]: the protein stability index came to 3.56.
On to FHLAPARAGHHPNQYATSRLCGRQ [C18S], for which the protein stability index was 2.4.
The value for FHLAPARAGHHPNQYATKRLCGRQ [C18K] was 2.22; that for FHLAPARAGHHPNQYATHRLCGRQ [C18H] was 2.27; that for FHLAPARAGHHPNQYATERLCGRQ [C18E] was 3.08.
The value for FHLAPARAGHHPNQYATARLCGRQ [C18A] was 2.12.
The value for FHLAPARAGHHPNQYATQRLCGRQ [C18Q] was 2.87; that for FHLAPARAGHHPNQYATPRLCGRQ [C18P] was 2.9.
For the variant FHLAPARAGHHPNQYATWRLCGRQ [C18W], the protein stability index amounted to 1.97.
The value for FHLAPARAGHHPNQYATLRLCGRQ [C18L] was 1.42; that for FHLAPARAGHHPNQYATMRLCGRQ [C18M] was 1.93; that for FHLAPARAGHHPNQYATFRLCGRQ [C18F] was 1.93.
For FHLAPARAGHHPNQYATYRLCGRQ [C18Y] the value was 1.93.
The value for FHLAPARAGKHPNQYATCRLCGRQ [H10K] was 2.63; that for FHLAPARAGRHPNQYATCRLCGRQ [H10R] was 1.21.
Consider FHLAPARAGCHPNQYATCRLCGRQ [H10C], for which the protein stability index is 2.01.
Take FHLAPARAGEHPNQYATCRLCGRQ [H10E]: the protein stability index was determined as 2.32.
For the variant FHLAPARAGMHPNQYATCRLCGRQ [H10M], the protein stability index is 2.81.
On to FHLAPARAGVHPNQYATCRLCGRQ [H10V], for which the protein stability index came out at 1.19.
FHLAPARAGTHPNQYATCRLCGRQ [H10T]: the protein stability index is 3.52.
On to FHLAPARAGSHPNQYATCRLCGRQ [H10S], for which the protein stability index stood at 2.24.
In the case of FHLAPARAGPHPNQYATCRLCGRQ [H10P], the protein stability index stood at 2.05.
The value for FHLAPARAGIHPNQYATCRLCGRQ [H10I] was 2.3; that for FHLAPARAGQHPNQYATCRLCGRQ [H10Q] was 2.13; that for FHLAPARAGLHPNQYATCRLCGRQ [H10L] was 1.7.
For FHLAPARAGNHPNQYATCRLCGRQ [H10N] the value was 1.55; for FHLAPARAGAHPNQYATCRLCGRQ [H10A], 1.22.
Turning to FHLAPARAGWHPNQYATCRLCGRQ [H10W], the protein stability index is 1.78.
For FHLAPARAGDHPNQYATCRLCGRQ [H10D] the value was 1.27; for FHLAPARAGFHPNQYATCRLCGRQ [H10F], 1.9.
Take FHLAPARAGYHPNQYATCRLCGRQ [H10Y]: the protein stability index was 1.7.
Consider FHLAPARAGGHPNQYATCRLCGRQ [H10G], for which the protein stability index amounted to 1.34.
The value for FHLAPARAGHHPNQYATCGLCGRQ [R19G] was 2.11; that for FHLAPARAGHHPNQYATCYLCGRQ [R19Y] was 1.16.
For FHLAPARAGHHPNQYATCELCGRQ [R19E] the value was 1.7; for FHLAPARAGHHPNQYATCQLCGRQ [R19Q], 2.36.
As for FHLAPARAGHHPNQYATCNLCGRQ [R19N], the protein stability index worked out at 1.52.
The value for FHLAPARAGHHPNQYATCKLCGRQ [R19K] was 3.11; that for FHLAPARAGHHPNQYATCHLCGRQ [R19H] was 2.05.
As to FHLAPARAGHHPNQYATCSLCGRQ [R19S], the protein stability index worked out at 1.92.
With FHLAPARAGHHPNQYATCVLCGRQ [R19V], the protein stability index turned out to be 2.78.
For the variant FHLAPARAGHHPNQYATCALCGRQ [R19A], the protein stability index was 1.93.
As to FHLAPARAGHHPNQYATCFLCGRQ [R19F], the protein stability index stood at 1.64.
FHLAPARAGHHPNQYATCWLCGRQ [R19W]: the protein stability index is 1.3.
The value for FHLAPARAGHHPNQYATCTLCGRQ [R19T] was 1.81; that for FHLAPARAGHHPNQYTTCRLCGRQ [A16T] was 2.3; that for FHLAPARAGHHPNQYSTCRLCGRQ [A16S] was 1.82.
The value for FHLAPARAGHHPNQYPTCRLCGRQ [A16P] was 2.4.
For FHLAPARAGHHPNQYCTCRLCGRQ [A16C] the value was 2.85; for FHLAPARAGHHPNQYNTCRLCGRQ [A16N], 2.38; for FHLAPARAGHHPNQYMTCRLCGRQ [A16M], 1.61.
As to FHLAPARAGHHPNQYHTCRLCGRQ [A16H], the protein stability index turned out to be 2.27.
For the variant FHLAPARAGHHPNQYYTCRLCGRQ [A16Y], the protein stability index worked out at 2.9.
In the case of FHLAPARAGHHPNQYKTCRLCGRQ [A16K], the protein stability index stood at 1.03.
For FHLAPARAGHHPNQYGTCRLCGRQ [A16G], the protein stability index came out at 1.59.
For FHLAPARAGHHPNQYITCRLCGRQ [A16I] the value was 2.69; for FHLAPARAGHHPNQYLTCRLCGRQ [A16L], 1.42; for FHLAPARAGHHPNQYETCRLCGRQ [A16E], 1.93.
The value for FHLAPARAGHHPNQYFTCRLCGRQ [A16F] was 2.37.
